Reference: article PMC4820838, “Quantifying the dynamics of the oligomeric transcription factor STAT3 by pair correlation of molecular brightness” (Nature Communications, 2016)

Molecular target: the molecule itself
Assay: pair correlation of molecular brightness (pCOMB); pair correlation of brightness fluctuations along a 64-pixel confocal line scan from cytoplasm to nucleus of live HeLa cells; amplitude calibrated against free GFP, YFP or mCherry; cells stimulated with 10 nM oncostatin M for 15 min

B1: STAT3-DB-GFP (natural protein, UniProt P40763 1-770, looked up)
chain: MAQWNQLQQLDTRYLEQLHQLYSDSFPMELRQFLAPWIESQDWAYAASKESHATLVFHNLLGEIDQQYSRFLQESNVLYQHNLRRIKQFLQSRYLEKPMEIARIVARCLWEESRLLQTAATAAQQGGQANHPTAAVVTEKQQMLEQHLQDVRKRVQDLEQKMKVVENLQDDFDFNYKTLKSQGDMQDLNGNNQSVTRQKMQQLEQMLTALDQMRRSIVSELAGLLSAMEYVQKTLTDEELADWKRRQQIACIGGPPNICLDRLENWITSLAESQLQTRQQIKKLEELQQKVSYKGDPIVQHRPMLEERIVELFRNLMKSAFVVERQPCMPMHPDRPLVIKTGVQFTTKVRLLVKFPELNYQLKIKVCIDKDSGDVAALRGSRKFNILGTNTKVMNMEESNNGSLSAEFKHLTLREQRCGNGGRANCDASLIVTAALHLITFETEVYHQGLKIDLETHSLPVVVISNICQMPNAWASILWYNMLTNNPKNVNFFTKPPIGTWDQVAEVLSWQFSSTTKRGLSIEQLTTLAEKLLGPGVNYSGCQITWAKFCKENMAGKGFSFWVWLDNIIDLVKKYILALWNEGYIMGFISKERERAILSTKPPGTFLLRFSESSKEGGVTFTWVEKDISGKTQIQSVEPYTKQQLNNMSFAEIIMGYKIMDATNILVSPLVYLYPDIPKEEAFGKYCRPESQEHPEADPGSAAPYLKTKFICVTPTTCSNTIDLPMSPRTLDSLMQFGNNGEGAEPSAGGQFESLTFDMELTSECATSPM
notes: cloned by Ivan Ng in the laboratory of Marie Bogoyevitch and David Jans; source: HeLa cells, transiently transfected, in live cells
stoichiometry N: 2
